The source of these data is patent US20200325187A1 (Genentech, published 2020).

This experiment has as its target T1, hVEGF-A (8-109) (human, UniProt P15692 214-315).
T1 sequence (looked up): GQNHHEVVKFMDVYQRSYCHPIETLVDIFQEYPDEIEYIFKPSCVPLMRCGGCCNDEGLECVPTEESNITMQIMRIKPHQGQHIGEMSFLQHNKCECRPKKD
The experiment is described as follows: spot phage ELISA. On the technique in general: In an ELISA, binding on a coated surface is turned into a signal by an enzyme label.
With GCNIMLPFWGCGRDFECLAGCVCQYYQSCGGS (designed binder) [9.54.90-2x63], the binding result is on record as “binds”. Next, GCNIMLPFWGCGRDFECLAGCVCQYYQSCGIA (designed binder) [9.54.90-2x2]: “binds”; GCNIMLPFWGCKQDSDCLAGCVCQYYQSCGSE (designed binder) [9.54-4]: “binds”. On to GCNIMLPFWGCKQDSDCLAGCVCQYYQSCGSD (designed binder) [9.54-21], for which the binding result is “binds”. For GCNIMLPFWGCKQDSDCLAGCVCQYYQSCGPE (designed binder) [9.54-15], the binding result is listed as “binds”.

For GCNIMLPFWGCKQDSDCLAGCVCQYYQSCGDD (designed binder) [9.54-19], the binding result is “binds”. With GCNIMLPFWGCKQDSDCLAGCVCQYYQSCGTN (designed binder) [9.54-42] the entry was “binds”; with GCNIMLPFWGCKQDSDCLAGCVCQYYQSCGTD (designed binder) [9.54-1], “binds”. Next, GCNIMLPFWGCKQDFDCLAGCVCQYYQSCGQY (designed binder) [9.54-6]: “binds”; GCNIMLPFWGCKQDSDCLAGCVCQYYQSCGPH (designed binder) [9.54-27]: “binds”; GCNIMLPFWGCKQDSDCLVGCICQYYQSCGSI (designed binder) [9.54-10]: “binds”. As to GCNIMLPFWGCKQDFDCLAGCICQYYQSCGGE (designed binder) [9.54-39], the binding result was “binds”. On to GCNIMLPFWGCKQDSDCLAGCVCQYYQSCGEN (designed binder) [9.54-24], for which the binding result is “binds”.

For the molecule GCNIMLPFWGCKQDSDCLAGCVCQYYQSCGEE (designed binder) [9.54-17], the binding result was “binds”.

GCNIMLPFWGCKQDFDCLAGCVCQYYQSCGDT (designed binder) [9.54-34]: the binding result is given as “binds”.

With GCNIMLPFWGCKQDFDCLAGCVCQYYQSCGRP (designed binder) [9.54-13], the binding result is listed as “binds”. For the molecule GCNIMLPFWGCKQDSDCLAGCICQYYQSCGQN (designed binder) [9.54-12], the binding result is recorded as “binds”. With GCNIMLPFWGCKQDFDCLAGCVCQYYQSCGLE (designed binder) [9.54-5] the entry was “binds”; with GCNIMLPFWGCKQDFDCLAGCVCQYYQSCGGR (designed binder) [9.54-32], “binds”. With GCNIMLPFWGCKQDSDCLAGCVCQYYQSCGMD (designed binder) [9.54-2] the entry was “binds”; with GCNIMLPFWGCKQDSDCLAGCVCQYYQSCGDG (designed binder) [9.54-43], “binds”. Turning to GCNIMLPFWGCKQDFDCLAGCVCQYYQSCGQH (designed binder) [9.54-9], the binding result was “binds”.
